Data set [1] has as its target T1, SUVH5 SRA domain (Arabidopsis, UniProt O82175 362-528).
T1 sequence: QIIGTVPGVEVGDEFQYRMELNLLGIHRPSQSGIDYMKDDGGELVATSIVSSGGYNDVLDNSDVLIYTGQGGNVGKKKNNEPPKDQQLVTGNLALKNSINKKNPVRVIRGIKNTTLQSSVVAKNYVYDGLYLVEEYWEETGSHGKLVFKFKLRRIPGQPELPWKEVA
Description: X-ray crystal structure (2.6 A); 2:1 complex, dual 5hmC flip-out; ITC: 40 mM Tris-HCl pH 7.5, 50 mM NaCl, 2 mM b-mercaptoethanol, 25 C; FP: 20 mM Tris-HCl pH 7.5, 50 mM NaCl, 1 mM DTT, 20 C; EMSA: 25 mM Tris-HCl pH 7.5, 5% glycerol, 60 mM NaCl, 10 mM MgCl2, 0.4 mg/mL BSA, 2 mM DTT. To be noted: protein: recombinant; tags: His6-SUMO, cleaved with Ulp1; chain copies: 2; self-complementary, 2 copies of strand; 3' T overhang. (Mobility shift assays separate free from complexed probe on a gel.)

For data set [2], the target named is T2, UHRF1 SRA domain (mammalian? (species ), UniProt Q96T88-2 427-630).
T2 sequence: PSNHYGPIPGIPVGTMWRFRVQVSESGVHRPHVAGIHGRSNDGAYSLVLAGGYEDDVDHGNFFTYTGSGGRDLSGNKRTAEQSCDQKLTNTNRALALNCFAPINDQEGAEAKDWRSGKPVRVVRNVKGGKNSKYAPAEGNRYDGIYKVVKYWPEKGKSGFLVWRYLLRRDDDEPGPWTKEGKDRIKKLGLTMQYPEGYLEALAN
Description: fluorescence polarization; 20 C; ITC: 40 mM Tris-HCl pH 7.5, 50 mM NaCl, 2 mM b-mercaptoethanol, 25 C; FP: 20 mM Tris-HCl pH 7.5, 50 mM NaCl, 1 mM DTT, 20 C; EMSA: 25 mM Tris-HCl pH 7.5, 5% glycerol, 60 mM NaCl, 10 mM MgCl2, 0.4 mg/mL BSA, 2 mM DTT. To be noted: protein: recombinant; tags: His6-SUMO, cleaved with Ulp1; label: 5'-6FAM.

Data set [3] addresses T1, SUVH5 SRA domain. The experiment in a line: ITC; N fixed to 0.5; endothermic; 3-fold higher concentrations; ITC: 40 mM Tris-HCl pH 7.5, 50 mM NaCl, 2 mM b-mercaptoethanol, 25 C; FP: 20 mM Tris-HCl pH 7.5, 50 mM NaCl, 1 mM DTT, 20 C; EMSA: 25 mM Tris-HCl pH 7.5, 5% glycerol, 60 mM NaCl, 10 mM MgCl2, 0.4 mg/mL BSA, 2 mM DTT. To be noted: protein: recombinant; tags: His6-SUMO, cleaved with Ulp1; chain copies: 2; self-complementary, 2 copies of strand. (ITC needs no label: the signal is the heat of the interaction.)

Data set [4] deals with T1, SUVH5 SRA domain. Description: ITC; N = 0.48; ITC: 40 mM Tris-HCl pH 7.5, 50 mM NaCl, 2 mM b-mercaptoethanol, 25 C; FP: 20 mM Tris-HCl pH 7.5, 50 mM NaCl, 1 mM DTT, 20 C; EMSA: 25 mM Tris-HCl pH 7.5, 5% glycerol, 60 mM NaCl, 10 mM MgCl2, 0.4 mg/mL BSA, 2 mM DTT. The following applies: protein: recombinant; tags: His6-SUMO, cleaved with Ulp1; chain copies: 2; self-complementary, 2 copies of strand.

Data set [5] deals with T1, SUVH5 SRA domain. Description: ITC; N = 0.52; ITC: 40 mM Tris-HCl pH 7.5, 50 mM NaCl, 2 mM b-mercaptoethanol, 25 C; FP: 20 mM Tris-HCl pH 7.5, 50 mM NaCl, 1 mM DTT, 20 C; EMSA: 25 mM Tris-HCl pH 7.5, 5% glycerol, 60 mM NaCl, 10 mM MgCl2, 0.4 mg/mL BSA, 2 mM DTT. To be noted: protein: recombinant; tags: His6-SUMO, cleaved with Ulp1; chain copies: 2; self-complementary, 2 copies of strand.

The target in data set [6] is T1, SUVH5 SRA domain. Description: ITC; N fixed to 0.5; 3-fold higher concentrations; ITC: 40 mM Tris-HCl pH 7.5, 50 mM NaCl, 2 mM b-mercaptoethanol, 25 C; FP: 20 mM Tris-HCl pH 7.5, 50 mM NaCl, 1 mM DTT, 20 C; EMSA: 25 mM Tris-HCl pH 7.5, 5% glycerol, 60 mM NaCl, 10 mM MgCl2, 0.4 mg/mL BSA, 2 mM DTT. The following applies: protein: recombinant; tags: His6-SUMO, cleaved with Ulp1; chain copies: 2; self-complementary, 2 copies of strand.

The target in data set [7] is T1, SUVH5 SRA domain. The experiment in a line: ITC; ITC: 40 mM Tris-HCl pH 7.5, 50 mM NaCl, 2 mM b-mercaptoethanol, 25 C; FP: 20 mM Tris-HCl pH 7.5, 50 mM NaCl, 1 mM DTT, 20 C; EMSA: 25 mM Tris-HCl pH 7.5, 5% glycerol, 60 mM NaCl, 10 mM MgCl2, 0.4 mg/mL BSA, 2 mM DTT. The following applies: protein: recombinant; tags: His6-SUMO, cleaved with Ulp1; chain copies: 2.

B1: fully-5hmCG 10-mer with 3'-T overhang (crystal) (dsDNA)
DNA 1: ACTACGTAGTT
DNA 2: ACTACGTAGTT
modifications: 5hmC at position 5, both strands
For the molecule B1, in data set [1], the binding result is on record as “binds”.

B2: hemi-5mCG 12-mer (dsDNA)
DNA 1: CCATGCGCTGAC
DNA 2: GTCAGCGCATGG
modifications: X = 5mC, one strand
As for B2, the equilibrium dissociation constant (Kd) in data set [2] was 0.35 µM.

B3: fully-5fCG duplex (ITC) (dsDNA)
DNA 1: CAGCTCGAGCTG
DNA 2: CAGCTCGAGCTG
modifications: 5fC at central CG, both strands
For B3, the Kd in data set [3] is about 125 µM.

B4: fully-5mCG duplex (ITC) (dsDNA)
DNA 1: CAGCTCGAGCTG
DNA 2: CAGCTCGAGCTG
modifications: 5mC at central CG, both strands
As to B4, in data set [4], the Kd was determined as 1.2 ± 0.09 µM.

B5: fully-5hmCG duplex (ITC) (dsDNA)
DNA 1: CAGCTCGAGCTG
DNA 2: CAGCTCGAGCTG
modifications: 5hmC at central CG, both strands
As to B5, in data set [5], the Kd was 1.5 ± 0.12 µM.

B6: fully-5caCG duplex (ITC) (dsDNA)
DNA 1: CAGCTCGAGCTG
DNA 2: CAGCTCGAGCTG
modifications: 5caC at central CG, both strands
Take B6: the Kd in data set [6] was about 150 µM.

B7: hemi-5hmCG duplex (ITC) (dsDNA)
DNA 1: CCATGCGCTGAC
DNA 2: GTCAGCGCATGG
modifications: 5hmC at central CG, one strand
B7: the Kd in data set [7] is 7.6 ± 0.6 µM.

For orientation: Kd means the equilibrium constant for the complex coming apart.

The record behind these values is paper PMC4740795, “Mechanistic insights into the recognition of 5-methylcytosine oxidation derivatives by the SUVH5 SRA domain”.
